Source: paper PMC6877527, “Sugar-mediated regulation of a c-di-GMP phosphodiesterase in Vibrio cholerae” (Nature Communications, 2019)

What was measured:
VC1710 (PdeS) = target: T1, VC1710 (PdeS) (Vibrio cholerae, UniProt Q9KRD2); experiment: biochemical
T1 construct: gene VC_1710

GST-PdeS (V. cholerae) = experiment: MST; NanoTemper Monolith NT.115pico; GST-PdeS labeled with NT-647 at 4.875 nM; unlabeled EIIA^Glc titrated in 1:1 serial dilutions from 21.9 uM; 25 mM HEPES-NaOH pH 7.6, 100 mM NaCl, 5 mM beta-mercaptoethanol, 0.5 mg/ml BSA, 0.05% Tween 20; 15% LED power, 30% MST power, 22 C

| Compound | Kd (VC1710 (PdeS)) [nM] | Kd (GST-PdeS (V. cholerae)) [nM] |
| --- | --- | --- |
| Nc1nc2c(ncn2[C@@H]2O[C@@H]3CO[P@](=O)(O)O[C@H]4[C@@H](O)[C@H](n5cnc6c(=O)[nH]c(N)nc65)O[C@@H]4CO[P@](=O)(O)O[C@H]3[C@H]2O)c(=O)[nH]1 [c-di-GMP] | ~8700 | – |
| hexahistidine-tagged EIIA^Glc, dephosphorylated form (natural protein) | – | 114 |
| hexahistidine-tagged EIIA^Glc, phosphorylated form (natural protein) | – | 287 |
